Data as given in patent US20220403048A1, “BINDING MOLECULES TO ARGINASE II [ARG2]” (Cancer Research Technology Limited, priority 2019, published 2022).

Molecular target: T1, trimeric human ARG2 (Homo sapiens, UniProt P78540)
T1 construct: human ARG2 (aa23-354); His10 (C); made in house; host or cells: E. coli BL21 (DE3)
T1 sequence (P78540 23-354): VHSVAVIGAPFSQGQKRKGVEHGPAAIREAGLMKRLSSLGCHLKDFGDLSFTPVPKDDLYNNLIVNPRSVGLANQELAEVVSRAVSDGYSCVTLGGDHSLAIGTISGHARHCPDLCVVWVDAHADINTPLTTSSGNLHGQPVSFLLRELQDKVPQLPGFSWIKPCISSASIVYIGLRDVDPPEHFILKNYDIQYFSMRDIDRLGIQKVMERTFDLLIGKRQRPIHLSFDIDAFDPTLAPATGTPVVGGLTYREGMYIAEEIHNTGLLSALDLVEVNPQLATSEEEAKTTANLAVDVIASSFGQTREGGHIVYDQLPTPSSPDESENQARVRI
Test: Human trimeric ARG2 enzyme inhibition assay (urea production)
Format: biochemical
Experimental: Unpurified anti-ARG2 scFv fragments from periplasmic preparations were screened in an ARG2 enzyme inhibition assay using a Pherastar plate reader (BMG Labtech, Germany). In this assay, the ability of unpurified scFv to inhibit the enzymatic activity of trimeric ARG2 was determined by measuring the production of urea, the product of L-arginine turnover by ARG2.
Selection outputs were screened as unpurified bacterial periplasmic extracts containing scFv, prepared in 200 mM TES buffer pH 7.4, 0.5 mM EDTA and 0.5 M sucrose. 10 μl of unpurified scFv were added to a Greiner Bio-One® 384 well assay plate (Greiner Bio-one, UK; cat: 781901). This was followed by the addition of 5 μl of 1.6 μg/ml trimeric human ARG2 that had been diluted in 40 mM MnCl2, 100 mM tris-HCl, pH7.4 (4× enzyme buffer). […]
Urea was detected by the simultaneous addition of equal volumes of O-Phthaldialdehyde (1.5 mM O-Phthaldialdehyde, 7% H2SO4, 0.03% Brij L23) and N-(1-Napthyl)ethylenediamine (1.66 mM N-(1-Napthyl)ethylenediamine, 81 mM Boric acid, 21% H2SO4, 0.03% Brij L23) followed by an 18 minute incubation at room temperature before the colorimetric product was quantified on the Pherastar by measuring absorbance at 505 nm. […]
Data were analysed by calculating % maximum (max) control for each sample using the 505 nm absorbance data. % max control was determined according to equation 2. […]
IC50 values were determined by testing a dilution series of the purified scFv, prepared in TBS, in the ARG2 enzyme inhibition assay described in section 1.5, substituting the unpurified scFv periplasmic preparation with the purified scFv.
Background control wells were defined for each plate by the omission of substrate. […] Data were analysed by calculating % maximum (max) control for each sample. % max control was determined according to equation 1 detailed in section 1.5. […]
Data were again analysed by calculating % Max control values for each sample. […]

B1: C0020065: anti-ARG2 antibody, alternate lead isolation clone, VH SEQ ID NO: 2, VL SEQ ID NO: 7 (antibody, listed as Homo sapiens, V domains shown)
VH: GVNLRESGGGVVQPGRSLRLSCAASGFTFSSYAMHWVRQAPGKGLEWVAVISYDGSNKYYVDSVKGRFTISRDNSKNTLYLQMNSLRAEDTAVYYCARDSSQLWFDYWGRGTLVTVSS
VL: QSVVTQPPSVSGAPGQRVTISCTGSSSNIGTGYDVHWYQQLPGTAPKLLIYGNSNRPSGVPDRFSGSKSGTSASLAITGLQAEDEADYYCQSYDSSLSGSVVFGGGTQLTVL
modifications: C0020065
inhibition of the activity of human trimeric ARG2 (purified recombinant human IgG1, FIG. 3): inhibited
inhibition of the activity of human trimeric ARG2 (purified scFv, FIG. 2): inhibited
